Results as given in patent publication US20230220057A1 (STAIDSON BEIJING BIOPHARMACEUTICALS, published 2023).
Where a chain is given by its changes, count along the chain named.

B1: Ab6 Fab (Fab, V domains shown)
VH: EVQLVQSGAEVKKPGATVKISCKVSGYTFITYWISWVQQAPGKGLEWMGAIDPSDSDARYSPSFQGRVTITADTSTDTAYMELSSLRSEDTAVYYCAKSDPGYSGYSLLYGFDSWGQGTLVTVSS
VL: DVVMTQSPLSLPVTLGQPASISCRSSQSLVQRNGNTYLSWFQQRPGQPPRLLIYQVSNRYSGVPDRFSGSGSGTDFTLKISRVEAEDVGVYYCGQGAHLPLTFGQGTKVEIK
B2: Ab44 Fab (Fab, V domains shown)
VH: EVQLVQSGAEVKKPGESLKISCKGSGYSFITYWISWVRQMPGKGLEWMGAIDPSDSDARYSPSFQGQVTISADKSISTAYLQWSSLKASDTAMYYCAKSDPGYSGYSLLYGFDSWGQGTLVTVSS
VL: B1 VL with F41Y, P48S
B3: Ab37 Fab (Fab, V domains shown)
VH: B1 VH with T74K
VL: B1 VL with V2I, P48S
B4: Ab16 Fab (Fab, V domains shown)
VH: B1 VH with T28S
VL: B1 VL
B5: Ab61 Fab (Fab, V domains shown)
VH: B1 VH
VL: B1 VL with G34A, F41Y, P48S
B6: Ab36 Fab (Fab, V domains shown)
VH: B1 VH with T74K
VL: B1 VL
B7: Ab47 Fab (Fab, V domains shown)
VH: B2 VH
VL: B1 VL with V2I, P48S
B8: Ab10 Fab (Fab, V domains shown)
VH: B1 VH
VL: B1 VL with V2I
B9: Ab46 Fab (Fab, V domains shown)
VH: B2 VH
VL: B1 VL
B10: Ab4 Fab (Fab, V domains shown)
VH: B1 VH
VL: B1 VL with F41Y, P48S
B11: Ab54 Fab (Fab, V domains shown)
VH: B2 VH with G24I
VL: B1 VL with F41Y, P48S
B12: Ab25 (antibody, human IgG1, V domains shown)
VH: B1 VH with T28S, T74K
VL: B1 VL with F41Y
B13: Ab35 (antibody, human IgG1, V domains shown)
VH: B1 VH with T74K
VL: B1 VL with F41Y
B14: Ab26 (antibody, human IgG1, V domains shown)
VH: B1 VH with T28S, T74K
VL: B1 VL
B15: Ab27 (antibody, human IgG1, V domains shown)
VH: B1 VH with T28S, T74K
VL: B1 VL with V2I, P48S
B16: Ab34 (antibody, human IgG1, V domains shown)
VH: B1 VH with T74K
VL: B1 VL with F41Y, P48S
B17: Ab28 (antibody, human IgG1, V domains shown)
VH: B1 VH with T28S, T74K
VL: B1 VL with V2I, F41Y, P48S
B18: Ab50 (antibody, human IgG1, V domains shown)
VH: B2 VH
VL: B1 VL with V2I
B19: Ab41 (antibody, human IgG1, V domains shown)
VH: B2 VH
VL: B1 VL with V2I, S7T, L11S, F41L, S72A
B20: Ab33 (antibody, human IgG1, V domains shown)
VH: B1 VH with T74K
VL: B1 VL with P48S
B21: Ab43 (antibody, human IgG1, V domains shown)
VH: B2 VH
VL: B1 VL with P48S
B22: Ab40 (antibody, human IgG1, V domains shown)
VH: B1 VH with T74K
VL: B1 VL with V2I
B23: Ab30 (antibody, human IgG1, V domains shown)
VH: B1 VH with T28S, T74K
VL: B1 VL with V2I
B24: Ab29 (antibody, human IgG1, V domains shown)
VH: B1 VH with T28S, T74K
VL: B1 VL with V2I, F41Y
B25: Ab39 (antibody, human IgG1, V domains shown)
VH: B1 VH with T74K
VL: B1 VL with V2I, F41Y
B26: Ab38 (antibody, human IgG1, V domains shown)
VH: B1 VH with T74K
VL: B1 VL with V2I, F41Y, P48S
B27: Ab51 (antibody, human IgG1, V domains shown)
VH: B2 VH with G24I
VL: B1 VL with V2I, S7T, L11S, F41L, S72A
B28: Ab32 (antibody, human IgG1, V domains shown)
VH: B1 VH with T74K
VL: B1 VL with V2I, S7T, L11S, F41Y, S72A
B29: Ab31 (antibody, human IgG1, V domains shown)
VH: B1 VH with T74K
VL: B1 VL with V2I, S7T, L11S, F41L, S72A
B30: Ab53 (antibody, human IgG1, V domains shown)
VH: B2 VH with G24I
VL: B1 VL with P48S

Biological target: T1, human NGF-Fc protein (human, UniProt P01138 122-241, limits assumed)
T1 construct: not shown: human IgG1 Fc or IgG4 Fc
Experiment: BLI (Octet Red), human NGF-Fc captured on anti-human Fc sensors, Fab in solution
Experimental: FortéBio BioLayer Interferometry (BLI) technology was chosen as the method for affinity determination by using Octet Red system. NGF is a homodimer protein in its nature form. […] For the purpose of affinity measurement, monovalent Fab fragments of IgG were prepared using Fab preparation kit (Pierce).
After purification, the Fab concentration was determined by OD280 according to the extinction coefficient calculated based on its sequence. […] For each assay, an array of Fab concentrations from about 50 nM to less than 1 nM in kinetic buffer (PALL) were tested by NGF-Fc sensors with the association time of 300 seconds and dissociation time of 1200 seconds. The kinetic data were analyzed using program Data Analysis HT 10.0 according to the manual. All the tests were repeated at least twice in independent assays.

T1 sequence (P01138 122-241 limits assumed): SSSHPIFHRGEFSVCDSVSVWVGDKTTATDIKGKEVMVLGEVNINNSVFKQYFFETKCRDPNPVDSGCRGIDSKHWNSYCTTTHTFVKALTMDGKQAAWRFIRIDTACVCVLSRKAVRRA

Row | Kd | koff | kon | Molecule
1 | 169 pM | 6.14e-05 s⁻¹ | 364000 M⁻¹ s⁻¹ | Tanezumab Fab
2 | 866 pM | 6.33e-05 s⁻¹ | 73100 M⁻¹ s⁻¹ | B1
3 | 704 pM | 5.9e-05 s⁻¹ | 83800 M⁻¹ s⁻¹ | B2
4 | 3250 pM | 5.27e-05 s⁻¹ | 16200 M⁻¹ s⁻¹ | B3
5 | 1370 pM | 7.11e-05 s⁻¹ | 51700 M⁻¹ s⁻¹ | B4
6 | 139 pM | 5.13e-05 s⁻¹ | 370000 M⁻¹ s⁻¹ | B5
7 | 258 pM | 7.35e-05 s⁻¹ | 285000 M⁻¹ s⁻¹ | B6
8 | 3480 pM | 0.000142 s⁻¹ | 40700 M⁻¹ s⁻¹ | B7
9 |  | 7.48e-05 s⁻¹ |  | B8
10 | 2890 pM | 0.000107 s⁻¹ | 37100 M⁻¹ s⁻¹ | B9
11 | 74.6 pM | 2.99e-05 s⁻¹ | 401000 M⁻¹ s⁻¹ | B10
12 | 148 pM | 4.43e-05 s⁻¹ | 300000 M⁻¹ s⁻¹ | B11

Biological target: recombinantly produced human-NGF (human, UniProt P01138 122-241, limits assumed)
Experiment: ELISA, human NGF coated, IgG titrated
Experimental: NGF binding ELISA assay: In human NGF binding ELISA, Corning 3366 high binding 96 well plates were coated with recombinantly produced human-NGF at 1 μg per ml, 50 μl/well in 1×PBS, and incubated overnight at 4° C. The plates were washed and blocked with 250 μl of 1×PBS/1% BSA at least 30 minutes at room temperature. 50 μl of culture supernatants, after 1:1 diluted by the PBS/BSA diluent, or the purified antibodies diluted serially from a certain concentration with the diluent, were added per well, and incubated at 37° C. for 2 hours. After washing, a secondary antibody, goat anti-human IgG Fc AP (Southern biotech) was applied at a dilution of 1:3000 in PBS/BSA. The plates were incubated for 1 hour at RT and washed. After adding the PNPP substrate, the ODs at 405 nm were read.
NGF binding ELISA assay: NGF binding ELISA assay was performed as described in Example 1.

recombinantly produced human-NGF, sequence (P01138 122-241 limits assumed): as above

Row | EC50 | Molecule
13 | 0.0331 ng/mL | B12
14 | 0.0308 ng/mL | B13
15 | 0.0234 ng/mL | B14
16 | 0.0206 ng/mL | B15
17 | 0.11 ng/mL | B16
18 | 0.0331 ng/mL | B17
19 | 0.00629 ng/mL | B18
20 | 0.0192 ng/mL | B19
21 | 0.0342 ng/mL | B20
22 | 0.0221 ng/mL | B21
23 | 0.0172 ng/mL | B22
24 | 0.0254 ng/mL | B23
25 | 0.0292 ng/mL | B24
26 | 0.0208 ng/mL | B25
27 | 0.0252 ng/mL | B26
28 | 0.0221 ng/mL | B27
29 | 0.0403 ng/mL | B28
30 | 0.0502 ng/mL | B29
31 | 0.0482 ng/mL | B30
